Laboratory results reported in paper PMC7763485, “Quantifying the Monomer–Dimer Equilibrium of Tubulin with Mass Photometry” (Journal of Molecular Biology, 2020).

Molecular target: β-tubulin (porcine, UniProt P02554 1-445)
Assay: mass photometry; label-free, in free solution; tubulin diluted in BRB80 buffer to 1 to 60 nM total monomer, no added GTP; 20 min equilibration after dilution (also measured immediately after dilution); Kd computed from counts of monomers and dimers in each single distribution; heterodimer to monomers
Conditions: both partners purified

β-tubulin, sequence (P02554 whole entry): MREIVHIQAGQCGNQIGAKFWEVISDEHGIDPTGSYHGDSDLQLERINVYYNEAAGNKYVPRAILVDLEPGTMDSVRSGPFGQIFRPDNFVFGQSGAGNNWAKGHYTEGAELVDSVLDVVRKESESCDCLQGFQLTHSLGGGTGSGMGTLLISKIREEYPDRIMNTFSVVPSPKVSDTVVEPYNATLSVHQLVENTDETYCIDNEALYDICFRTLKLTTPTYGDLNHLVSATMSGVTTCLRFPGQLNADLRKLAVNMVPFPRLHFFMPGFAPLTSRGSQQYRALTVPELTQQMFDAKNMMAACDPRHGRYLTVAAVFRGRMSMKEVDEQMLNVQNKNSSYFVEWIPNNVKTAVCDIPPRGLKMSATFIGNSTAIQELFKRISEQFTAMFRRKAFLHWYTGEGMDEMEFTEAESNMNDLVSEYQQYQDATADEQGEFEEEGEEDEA

dimer:monomer ratio at 60 nM total tubulin: ~2
B1: α-tubulin (natural protein)
chain: MRECISIHVGQAGVQIGNACWELYCLEHGIQPDGQMPSDKTIGGGDDSFNTFFSETGAGKHVPRAVFVDLEPTVIDEVRTGTYRQLFHPEQLITGKEDAANNYARGHYTIGKEIIDLVLDRIRKLADQCTGLQGFSVFHSFGGGTGSGFTSLLMERLSVDYGKKSKLEFSIYPAPQVSTAVVEPYNSILTTHTTLEHSDCAFMVDNEAIYDICRRNLDIERPTYTNLNRLIGQIVSSITASLRFDGALNVDLTEFQTNLVPYPRAHFPLATYAPVISAEKAYHEQLSVAEITNACFEPANQMVKCDPRHGKYMACCLLYRGDVVPKDVNAAIATIKTKRTIQFVDWCPTGFKVGINYEPPTVVPGGDLAKVQRAVCMLSNTTAIAEAWARLDHKFDLMYAKRAFVHWYVGEGMEEGEFSEAREDMAALEKDYEEVGVDSVEGEGEEEGEEY
modifications: Brain-purified isotype mixture, isotype not named; TUBA1A taken as representative by convention. Native brain PTMs are likely but not specified. GTP at the non-exchangeable site as purified; the …
